From paper PMC4914113, “Another look at the mechanism involving trimeric dUTPases in Staphylococcus aureus pathogenicity island induction involves novel players in the party” (Nucleic Acids Research, 2016)

Molecular target: Dut80α D81A D110C S168C (Staphylococcus aureus phage 80α)
Test: BLI; as a1 but non-reducing buffer (400 mM NaCl, 75 mM HEPES pH 7.5, 5 mM MgCl2); no nucleotide; 1:1 model

“Stl repressor from SaPIbov1 (natural protein)” gave a Kd of 6 nM, a koff of 0.00085 s⁻¹ and a kon of 140000 M⁻¹ s⁻¹.
